For 1 molecule, Kd results are on record in publication PMC2972214 (2010).

The Kd is a measure of binding affinity in units of concentration.

Common to all, as to assay: SPR
(In general: SPR reads the build-up and loss of mass on a sensor chip optically.)

Experiment [1] addresses recombinant α-enolase of Streptococcus salivarius SV41 (IPM …) (Streptococcus salivarius, UniProt J7THK5 1-434).
For experiment [2], the target named is recombinant α-enolase of Streptococcus oralis SV11 (IPM …) (Streptococcus oralis, UniProt A0A1X1IR15 1-434).
Experiment [3] deals with recombinant α-enolase of Streptococcus salivarius SV17 (IPM FYENG—VY) (Streptococcus salivarius, UniProt J7THK5 1-434).
For experiment [4], the target named is recombinant α-enolase of oral streptococcal strain SV90.

B1: human plasminogen (natural protein)
chain: EPLDDYVNTQGASLFSVTKKQLGAGSIEECAAKCEEDEEFTCRAFQYHSKEQQCVIMAENRKSSIIIRMRDVVLFEKKVYLSECKTGNGKNYRGTMSKTKNGITCQKWSSTSPHRPRFSPATHPSEGLEENYCRNPDNDPQGPWCYTTDPEKRYDYCDILECEEECMHCSGENYDGKISKTMSGLECQAWDSQSPHAHGYIPSKFPNKNLKKNYCRNPDRELRPWCFTTDPNKRWELCDIPRCTTPPPSSGPTYQCLKGTGENYRGNVAVTVSGHTCQHWSAQTPHTHNRTPENFPCKNLDENYCRNPDGKRAPWCHTTNSQVRWEYCKIPSCDSSPVSTEQLAPTAPPELTPVVQDCYHGDGQSYRGTSSTTTTGKKCQSWSSMTPHRHQKTPENYPNAGLTMNYCRNPDADKGPWCFTTDPSVRWEYCNLKKCSGTEASVVAPPPVVLLPDVETPSEEDCMFGNGKGYRGKRATTVTGTPCQDWAAQEPHRHSIFTPETNPRAGLEKNYCRNPDGDVGGPWCYTTNPRKLYDYCDVPQCAAPSFDCGKPQVEPKKCPGRVVGGCVAHPHSWPWQVSLRTRFGMHFCGGTLISPEWVLTAAHCLEKSPRPSSYKVILGAHQEVNLEPHVQEIEVSRLFLEPTRKDIALLKLSSPAVITDKVIPACLPSPNYVVADRTECFITGWGETQGTFGAGLLKEAQLPVIENKVCNRYEFLNGRVQSTELCAGHLAGGTDSCQGDSGGPLVCFEKDKYILQGVTSWGLGCARPNKPGVYVRVSRFVTWIEGVMRNN
Consider B1, for which the Kd in experiment [1] was determined as 300 nM; in experiment [2] it was 1600 nM; in experiment [3] it was 500 nM; in experiment [4], 300 nM.
